Test [1] addresses T1, Avi-human CD38 ECD (human, UniProt P28907 43-300).
T1 construct: eluted as a monomer; also called hCD38; huCD38
Nature of the test: ELISA on human CD38 ECD; class A = EC50 0.02 nM - 0.1 nM (table legend).

Test [2] deals with ICAM1 on the surface of tumor cells (human, UniProt P05362 28-532). Nature of the test: cell-based or functional assay.
ICAM1 on the surface of tumor cells, sequence (P05362 28-532): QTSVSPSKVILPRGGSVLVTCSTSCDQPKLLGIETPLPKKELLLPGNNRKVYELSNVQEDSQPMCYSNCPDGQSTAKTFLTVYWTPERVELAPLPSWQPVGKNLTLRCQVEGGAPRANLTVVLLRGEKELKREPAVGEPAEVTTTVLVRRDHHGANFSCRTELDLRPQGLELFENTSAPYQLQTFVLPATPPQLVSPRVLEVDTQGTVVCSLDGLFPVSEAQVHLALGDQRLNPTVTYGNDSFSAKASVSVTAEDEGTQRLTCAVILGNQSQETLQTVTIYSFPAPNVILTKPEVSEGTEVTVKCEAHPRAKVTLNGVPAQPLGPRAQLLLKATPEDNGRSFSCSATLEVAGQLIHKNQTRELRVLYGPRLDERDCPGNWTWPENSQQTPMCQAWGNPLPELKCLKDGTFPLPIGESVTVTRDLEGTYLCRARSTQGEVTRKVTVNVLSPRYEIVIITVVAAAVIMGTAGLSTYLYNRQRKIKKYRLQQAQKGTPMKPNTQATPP

B1: h18E4-19 HC E101A (antibody, name in Kabat numbering, V domains shown)
VH: EVQLLESGGGLVQPGGSLRLSCAASGFSFNNYWIIWIRQAPGKGLEWVAAIYSPSGDIKYYADWAKGRFTVSKDNSKNTVYLQMNSLRAEDTAVYYCARELSGSSYEGYFASWGQGTLVTV
VL: DIQLTQSPSTLSASVGDRVTITCRSSQSVYGHNWLAWYQQKPGKAPKLLMYRASNLASGVPSRFSGSGSGTEFTLTISSVQPDDFATYYCQGYYSGGSYAFGGGTKVEIK
notes: Alanine scan variant of h18E4-19; Kabat numbers, not linear positions of the entry
As to B1, in test [1], the EC50 was 0.02 to 0.1 nM.

B2: h18E4-19 HC S99A (antibody, name in Kabat numbering, V domains shown)
VH: EVQLLESGGGLVQPGGSLRLSCAASGFSFNNYWIIWIRQAPGKGLEWVAAIYSPSGDIKYYADWAKGRFTVSKDNSKNTVYLQMNSLRAEDTAVYYCARELSGASYEGYFESWGQGTLVTV
VL: DIQLTQSPSTLSASVGDRVTITCRSSQSVYGHNWLAWYQQKPGKAPKLLMYRASNLASGVPSRFSGSGSGTEFTLTISSVQPDDFATYYCQGYYSGGSYAFGGGTKVEIK
notes: as for B1
Regarding B2, in test [1], the EC50 lay within 0.02 to 0.1 nM.

B3: h18E4-19 LC G95A (antibody, V domains shown)
VH: EVQLLESGGGLVQPGGSLRLSCAASGFSFNNYWIIWIRQAPGKGLEWVAAIYSPSGDIKYYADWAKGRFTVSKDNSKNTVYLQMNSLRAEDTAVYYCARELSGSSYEGYFESWGQGTLVTV
VL: DIQLTQSPSTLSASVGDRVTITCRSSQSVYGHNWLAWYQQKPGKAPKLLMYRASNLASGVPSRFSGSGSGTEFTLTISSVQPDDFATYYCQGYYSGASYAFGGGTKVEIK
notes: as for B1
Take B3: in test [1], the EC50 fell in the range of 0.02 to 0.1 nM.

B4: h18E4-19 LC Y92A (antibody, V domains shown)
VH: EVQLLESGGGLVQPGGSLRLSCAASGFSFNNYWIIWIRQAPGKGLEWVAAIYSPSGDIKYYADWAKGRFTVSKDNSKNTVYLQMNSLRAEDTAVYYCARELSGSSYEGYFESWGQGTLVTV
VL: DIQLTQSPSTLSASVGDRVTITCRSSQSVYGHNWLAWYQQKPGKAPKLLMYRASNLASGVPSRFSGSGSGTEFTLTISSVQPDDFATYYCQGYASGGSYAFGGGTKVEIK
notes: as for B1
Consider B4, for which the EC50 in test [1] was 0.02 to 0.1 nM.

B5: h18E4-19 HC S102A (antibody, name in Kabat numbering, V domains shown)
VH: EVQLLESGGGLVQPGGSLRLSCAASGFSFNNYWIIWIRQAPGKGLEWVAAIYSPSGDIKYYADWAKGRFTVSKDNSKNTVYLQMNSLRAEDTAVYYCARELSGSSYEGYFEAWGQGTLVTV
VL: DIQLTQSPSTLSASVGDRVTITCRSSQSVYGHNWLAWYQQKPGKAPKLLMYRASNLASGVPSRFSGSGSGTEFTLTISSVQPDDFATYYCQGYYSGGSYAFGGGTKVEIK
notes: as for B1
Take B5: the EC50 in test [1] lay in the range of 0.02 to 0.1 nM.

B6: h18E4-19 HC S97A (antibody, name in Kabat numbering, V domains shown)
VH: EVQLLESGGGLVQPGGSLRLSCAASGFSFNNYWIIWIRQAPGKGLEWVAAIYSPSGDIKYYADWAKGRFTVSKDNSKNTVYLQMNSLRAEDTAVYYCARELAGSSYEGYFESWGQGTLVTV
VL: DIQLTQSPSTLSASVGDRVTITCRSSQSVYGHNWLAWYQQKPGKAPKLLMYRASNLASGVPSRFSGSGSGTEFTLTISSVQPDDFATYYCQGYYSGGSYAFGGGTKVEIK
notes: as for B1
B6 registered an EC50 in test [1] of 0.02 to 0.1 nM.

B7: h18E4-19 HC Y100aA (antibody, name in Kabat numbering, V domains shown)
VH: EVQLLESGGGLVQPGGSLRLSCAASGFSFNNYWIIWIRQAPGKGLEWVAAIYSPSGDIKYYADWAKGRFTVSKDNSKNTVYLQMNSLRAEDTAVYYCARELSGSSAEGYFESWGQGTLVTV
VL: DIQLTQSPSTLSASVGDRVTITCRSSQSVYGHNWLAWYQQKPGKAPKLLMYRASNLASGVPSRFSGSGSGTEFTLTISSVQPDDFATYYCQGYYSGGSYAFGGGTKVEIK
notes: as for B1
The molecule B7 gave an EC50 in test [1] of 0.02 to 0.1 nM.

B8: h18E4-19 HC L96A (antibody, name in Kabat numbering, V domains shown)
VH: EVQLLESGGGLVQPGGSLRLSCAASGFSFNNYWIIWIRQAPGKGLEWVAAIYSPSGDIKYYADWAKGRFTVSKDNSKNTVYLQMNSLRAEDTAVYYCAREASGSSYEGYFESWGQGTLVTV
VL: DIQLTQSPSTLSASVGDRVTITCRSSQSVYGHNWLAWYQQKPGKAPKLLMYRASNLASGVPSRFSGSGSGTEFTLTISSVQPDDFATYYCQGYYSGGSYAFGGGTKVEIK
notes: as for B1
In turn, B8 showed an EC50 in test [1] of 0.02 to 0.1 nM.

B9: h18E4-19 HC G98A (antibody, V domains shown)
VH: EVQLLESGGGLVQPGGSLRLSCAASGFSFNNYWIIWIRQAPGKGLEWVAAIYSPSGDIKYYADWAKGRFTVSKDNSKNTVYLQMNSLRAEDTAVYYCARELSASSYEGYFESWGQGTLVTVSS
VL: DIQLTQSPSTLSASVGDRVTITCRSSQSVYGHNWLAWYQQKPGKAPKLLMYRASNLASGVPSRFSGSGSGTEFTLTISSVQPDDFATYYCQGYYSGGSYAFGGGTKVEIK
notes: as for B1
Molecule B9 came in with an EC50 in test [1] of 0.02 to 0.1 nM.

B10: h18E4-19 HC S100A (antibody, name in Kabat numbering, V domains shown)
VH: EVQLLESGGGLVQPGGSLRLSCAASGFSFNNYWIIWIRQAPGKGLEWVAAIYSPSGDIKYYADWAKGRFTVSKDNSKNTVYLQMNSLRAEDTAVYYCARELSGSAYEGYFESWGQGTLVTV
VL: DIQLTQSPSTLSASVGDRVTITCRSSQSVYGHNWLAWYQQKPGKAPKLLMYRASNLASGVPSRFSGSGSGTEFTLTISSVQPDDFATYYCQGYYSGGSYAFGGGTKVEIK
notes: as for B1
For B10, the EC50 in test [1] lay within 0.02 to 0.1 nM.

B11: h18E4-19 HC F100eA (antibody, name in Kabat numbering, V domains shown)
VH: EVQLLESGGGLVQPGGSLRLSCAASGFSFNNYWIIWIRQAPGKGLEWVAAIYSPSGDIKYYADWAKGRFTVSKDNSKNTVYLQMNSLRAEDTAVYYCARELSGSSYEGYAESWGQGTLVTV
VL: DIQLTQSPSTLSASVGDRVTITCRSSQSVYGHNWLAWYQQKPGKAPKLLMYRASNLASGVPSRFSGSGSGTEFTLTISSVQPDDFATYYCQGYYSGGSYAFGGGTKVEIK
notes: as for B1
Turning to B11, the EC50 in test [1] was 0.02 to 0.1 nM.

B12: h18E4-19 LC Q89A (antibody, V domains shown)
VH: EVQLLESGGGLVQPGGSLRLSCAASGFSFNNYWIIWIRQAPGKGLEWVAAIYSPSGDIKYYADWAKGRFTVSKDNSKNTVYLQMNSLRAEDTAVYYCARELSGSSYEGYFESWGQGTLVTV
VL: DIQLTQSPSTLSASVGDRVTITCRSSQSVYGHNWLAWYQQKPGKAPKLLMYRASNLASGVPSRFSGSGSGTEFTLTISSVQPDDFATYYCAGYYSGGSYAFGGGTKVEIK
notes: as for B1
For the molecule B12, the EC50 in test [1] was 0.02 to 0.1 nM.

B13: h18E4-19 LC S95aA (antibody, V domains shown)
VH: EVQLLESGGGLVQPGGSLRLSCAASGFSFNNYWIIWIRQAPGKGLEWVAAIYSPSGDIKYYADWAKGRFTVSKDNSKNTVYLQMNSLRAEDTAVYYCARELSGSSYEGYFESWGQGTLVTV
VL: DIQLTQSPSTLSASVGDRVTITCRSSQSVYGHNWLAWYQQKPGKAPKLLMYRASNLASGVPSRFSGSGSGTEFTLTISSVQPDDFATYYCQGYYSGGAYAFGGGTKVEIK
notes: as for B1
Consider B13, for which the EC50 in test [1] was 0.02 to 0.1 nM.

B14: h11F2-6 (antibody, V domains shown)
VH: EVQVLESGGGLVQPGGSLRLSCAVSGFSLSSHAMGWVRQAPGKGLEWIGIIGSSDRTYYASWAKGRFTISKDNSKNTVYLQINSPRAEDTAVYYCVRDPYDSYDEGYRLWGQGTLVTVSS
VL: DIQMTQSPSTLSASVGDRVTITCQASQSIYRYLSWYQQKPGKAPKFLIYDASKLASGVPSRFSGSGSGTEFTLTISSVQPDDFATYYCQQAYSSGSIDNAFGGGTKVEIK
B14: in test [2], the “ADCC EC50 on Daudi cells; antibody made in CHO FUT8 -/- (afucosylated)” value came out at 0.008 nM, the “ADCC EC50 on HuNS1 cells; antibody made in CHO FUT8 -/- (afucosylated)” value amounted to 0.04 nM, the “ADCC EC50 on NCI-H2291 cells; antibody made in CHO” value came out at 0.329 nM and the “ADCC EC50 on NCI-H2291 cells; antibody made in CHO FUT8 -/- (afucosylated)” value turned out to be 0.019 nM. In addition, in test [2], the “ADCC EC50 on NCI-H2342 cells; antibody made in CHO” value amounted to 0.69 nM, the “ADCC EC50 on NCI-H2342 cells; antibody made in CHO FUT8 -/- (afucosylated)” value is 0.07 nM and the “ADCC EC50 on Raji cells; antibody made in CHO FUT8 -/- (afucosylated)” value was 0.038 nM.

The values above are taken from patent US20230312740A1 (VIRTUOSO BINCO, published 2023).
